Target: OVA257-264 (SIINFEKL) presented by H-2Kb on dendritic cells (chicken; mouse)
Assay: cell-based or functional assay

Q: For “OT-1 T cell receptor (TCR of OT-1 TCR transgenic mice, specific for the OVA257-264 epitope)”, which proliferating CD8+ T cells (CFSE dilution), BMDCs loaded with ZEBRA-OVA257-264 after maturation is on record?
A: Its proliferating CD8+ T cells (CFSE dilution), BMDCs loaded with ZEBRA-OVA257-264 after maturation is 70%.

Q: What about the proliferating CD8+ T cells (CFSE dilution), BMDCs loaded with ZEBRA-OVA257-264 before maturation of the same substance?
A: Its proliferating CD8+ T cells (CFSE dilution), BMDCs loaded with ZEBRA-OVA257-264 before maturation is 69%.

Q: And the proliferating CD8+ T cells (CFSE dilution, 5 days), DCs loaded with ZEBRA-OVA257-264?
A: Its proliferating CD8+ T cells (CFSE dilution, 5 days), DCs loaded with ZEBRA-OVA257-264 is 81%.

Q: What about the proliferating CD8+ T cells (CFSE dilution, 5 days), DCs pulsed with 10 uM Ova peptide (positive control) of the same substance?
A: The proliferating CD8+ T cells (CFSE dilution, 5 days), DCs pulsed with 10 uM Ova peptide (positive control) was 93%.

Source: patent US20160031946A1
